For 3 molecules, C50 results are on record in patent EP2857035B1.

One experiment addresses HLA-B35 (human). As to the kind of experiment: assembly assay, T2-B35 cell lysate, W6/32 IP, IEF gel.
The target of another experiment is HLA-B7 (human). As to the kind of experiment: assembly assay (HLA-B7 stabilisation).

Consider YPLHEQHQM (modifications not checked) [C24, EBNA3A458-466], for which the C50 in the experiment with HLA-B35 (human) amounted to 0.8 µM.
In turn, RPPIFIRRL (modifications not checked) [C7] had a C50 in the experiment with HLA-B7 (human) of 0.5 µM.
QPRAPIRPI (modifications not checked) [C6] had a C50 with HLA-B7 (human) of 0.1 µM.
